Measurements as given in US20180022819A1, “COMPOSITIONS AND METHODS FOR COMBINATION THERAPY WITH PROSTATE-SPECIFIC MEMBRANE ANTIGEN BINDING PROTEINS” (APTEVO RESEARCH AND DEVELOPMENT LLC, priority 2015, published 2018).

What was measured:
PSMA = experiment: Binding of FITC-labeled 107-1A4 to 22Rv1 cells by flow cytometry (Example 4); parameters: species or system human; settings: 22Rv1 cells that were or were not incubated with enzalutamide
Source text: Mean fluorescence intensity (MFI) of bound molecules on live cells is shown on the y-axis. Concentration (nM) of the anti-PSMA monoclonal antibody 107-1A4 labeled with FITC is shown on the x-axis.
22Rv1 cells (PSMA+ at low level) were obtained from ATCC (Manassas, Va.) and cultured according to the ATCC protocol in RPMI-1640 media plus 10% FBS. […] All four cultures were harvested, stained for PSMA with FITC-labeled anti-PSMA monoclonal antibody 107-1A4 (Acris), and PSMA expression assayed by standard flow cytometry procedures. 22Rv1 cells were harvested with trypsin, and placed into FACS buffer (PBS+0.5% BSA [Equitech]+2 mM EDTA [Life Technologies]) at 1×10e6 per ml. FITC-107-1A4 was prepared at 36 nM in FACS buffer, and serially diluted 1:3, before adding 50 μl to 2×10e5 22Rv1 cells which had been pelleted in a 96 well plate. After 30 minute incubation on ice, cells were washed 3 times in FACS buffer, resuspended in FACS buffer, and data acquired on a BD LSRII flow cytometer. The sample files were analyzed using FlowJo software; the median fluorescence intensity (MFI) of the live population of 22Rv1 cells in each well was calculated after gating on live cells (forward vs side scatter). Median fluorescence intensities were fit to a 4-parameter logistic curve and graphed as concentration vs. MFI using GraphPad PRISM® software.

LNCaP cells [1] = experiment: Effect of enzalutamide on redirected T-cell cytotoxicity in LNCaP cells expressing GFP (Example 1); assay type: cell-based, human; parameters: reduction of live target cells: dose or concentration left out as unconfirmed; settings: TSC249 titration with T-cells and […] nM enzalutamide, compared to TSC249 and T-cells alone
Procedure: A titration of the anti-PSMA bispecific molecule TSC249 (protein sequence of SEQ ID NO: 78 in Table 3) was added to all sets of LNCaP cells in the amounts shown on the x-axis. T-cells and DMSO were added to the first set of LNCaP cells (leftmost set of bars). […] No T-cells and DMSO were added to the third set of LNCaP cells (set of bars second from the right). […] LNCaP cell growth (number of live cells) was measured by overall fluorescence and expressed as a fraction of live cells relative to the cells untreated with TSC249 on the y-axis.
LNCaP cells expressing GFP were cultured with donor T-cells at a 3:1 ratio of T-cells to LNCaP target cells for 4 days. […] DMSO alone was added to other samples. A titration of the anti-PSMA bispecific molecule TSC249 (protein sequence of SEQ ID NO: 78 in Table 3) was added to the cell cultures. LNCaP cell growth (number of live cells) was monitored by overall fluorescence.

22Rv1 cells = experiment: Chromium-51 release assay of redirected T-cell cytotoxicity against 22Rv1 cells (Example 5); assay type: cell-based, human; settings: enzalutamide-treated 22Rv1 cells relative to untreated 22Rv1 cells
Procedure: FIG. 3 (top panel) is a graph showing the results of a chromium-51 release assay measuring the effectiveness of the anti-PSMA bispecific molecule TSC249 at inducing redirected T-cell cytotoxicity in 4 hours against enzalutamide-treated and untreated prostate cancer 22Rv1 cells. Percent specific lysis relative to a total lysis control is shown on the y-axis. Concentration (pM) of the anti-PSMA bispecific molecule TSC249 is shown on the x-axis.
To compare the sensitivity of enzalutamide-treated and untreated 22Rv1 prostate cancer cells to target-dependent T-cell cytotoxicity, a bispecific binding molecule targeting PSMA and CD3 was tested in a chromium (^51Cr) release assay using donor T-cells as effector cells. [See, e.g., US 2014/0161800 A1, which describes multispecific binding molecules that bind to prostate-specific membrane antigen (PSMA) and CD3.]
Cytotoxicity was assessed by a ^51Cr release assay. […]
Plates were incubated for 4 hours, spun at 225×g for 3 minutes, and 25 μL of supernatant was transferred from each well to the corresponding well of a 96-well LUMAPLATE® sample plate (Perkin Elmer). Sample plates were allowed to air dry in a chemical safety hood for 18 hours, and then radioactivity was read on a Topcount scintillation counter using a standard protocol. […]

LNCaP cells [2] = experiment: Growth inhibition of LNCaP-GFP cells with primary human T-cells, 4 days, with combination index analysis (Example 6); assay type: cell-based
Procedure: Additional procedures are described in Example 6. Percentage of live cells relative to an untreated control is shown on the y-axis.
Combination indices can indicate additive effects (CI=1), synergism (CI<1), or antagonism (CI>1).
Overall fluorescent signal from GFP enabled the quantitation of living LNCaP target cells in isolation from T-cells. […] TSC249 was added to have final concentrations of 125, 62.5, 31.25, 15.6, 7.8, 3.9, or 1.95 pM, or none. T-cells from several donors were used in replicate experiments, added at a ratio of 45,000 T-cells to 15,000 LNCaP cells per well.
After 4 days culture at 37° C. in 5% CO2, media was aspirated from wells and […] of 0.4% NP-40 was added to each well. Fluorescent signal from GFP in LNCaP cells adherent in wells was detected by a Spectramax plate reader, reading from the bottom of the wells. […]
The combination index theorem developed by Chou and Talalay was used to determine the interaction between the two compounds in their anti-cancer activity (see Chou, Cancer Res. 2010 Jan. 15; 70(2):440-6; Chou, Pharmacol Rev. 2006 September; 58(3):621-81). For each plate, relative fluorescence units (RFU) of all wells were normalized to the RFU of the well containing cells only, i.e., the proportion of living LNCaP cells in each well was expressed in relation to untreated LNCaP cells. […] Mean values were calculated from three replicates. […]

B1: FITC-107-1A4: FITC-labeled anti-PSMA monoclonal antibody 107-1A4 (Acris) (antibody, V domains shown)
VH: EIQLQQSGPELVKPGASVKMSCKASGYTFTDYYMHWVKQNNGESLEWIGYFNPYNDYTRYNQNFNGKATLTVDKSSSTAYMQLNSLTSEDSAFYYCARSDGYYDAMDYWGQGTSVTVSS
VL: DVQITQSPSYLAASPGETITINCRASKSISKYLAWYQEKPGKANKLLIHSGSTLQSGIPSRFSGSGSGTDFTLTISSLEPEDFAMYYCQQHIEYPWTFGGGTKLEIKRA
Question: For B1, which “ECso values determined from binding curves” value (PSMA) is on record?
Answer: no significant differences

B2: TSC249: anti-PSMA bispecific molecule targeting PSMA and CD3; protein sequence of SEQ ID NO: 78 (protein)
chain: DIQMTQSPSAMSASVGDRVTITCRASKSISKYLAWFQQKPGKVPKLRIHSGSTLQSGVPSRFSGSGSGTEFTLTISSLQPEDFATYYCQQHIEYPWTFGQGTKVEIKRGGGGSGGGGSGGGGSQVQLVQSGAEVKKPGASVKVSCKASGYTFTDYYMHWVRQAPGQGLEWMGYFNPYNDYTRYAQKFQGRVTMTRDTSISTAYMELSSLRSDDTAVYYCARSDGYYDAMDYWGQGTTVTVSSSEPKSSDKTHTCPPCPAPEAAGAPSVFLFPPKPKDTLMISRTPEVTCVVVDVSHEDPEVKFNWYVDGVEVHNAKTKPREEQYNSTYRVVSVLTVLHQDWLNGKAYACAVSNKALPAPIEKTISKAKGQPREPQVYTLPPSRDELTKNQVSLTCLVKGFYPSDIAVEWESNGQPENNYKTTPPVLDSDGSFFLYSKLTVDKSRWQQGNVFSCSVMHEALHNHYTQKSLSLSPGQRHNNSSLNTGTQMAGHSPNSQVQLVESGGGVVQPGRSLRLSCKASGYTFTRSTMHWVRQAPGQGLEWIGYINPSSAYTNYNQKFKDRFTISADKSKSTAFLQMDSLRPEDTGVYFCARPQVHYDYNGFPYWGQGTPVTVSSGGGGSGGGGSGGGGSAQDIQMTQSPSSLSASVGDRVTMTCSASSSVSYMNWYQQKPGKAPKRWIYDSSKLASGVPARFSGSGSGTDYTLTISSLQPEDFATYYCQQWSRNPPTFGGGTKLQITSSS
modifications: Humanized TSC249 Scorpion (huVL-VH#2 107-1A4 scFv-Fc-DRA222 scFv)
Question: For B2, which “reduction of live target cells” value (LNCaP cells [1]) is on record?
Answer: higher dose-dependent reduction of live target cells

Question: And the “specific lysis from T-cell directed cytotoxicity” value (22Rv1 cells)?
Answer: increase in specific lysis

Question: What about the “interaction by combination index (Chou and Talalay)” value (LNCaP cells [2]; 1.95-31.25 pM TSC249 at all enzalutamide concentrations used (39, 156, 625 nM)) of the same molecule?
Answer: Synergy

Question: What about the “live cell signal when combined with the other drug” value (LNCaP cells [2]; enzalutamide plus TSC249 over a wide range of concentrations, T-cells, 4 days) of the same molecule?
Answer: further decrease in live cell signal
